Test results published in patent US7083932 (EUROSCREEN S A, dated 2006).

B1: synthetic heptadecapeptide Phe-Gly-Gly-Phe-Thr-Gly-Ala-Arg-Lys-Ser-Ala-Arg-Lys-Leu-Ala-Asn-Gln (nociceptin) (peptide)
peptide: FGGFTGARKSARKLANQ
B2: 1Tyr analogue of the synthetic heptadecapeptide (peptide)
peptide: YGGFTGARKSARKLANQ

Molecular target: orphan receptor ORL1 (Opioid Receptor-Like 1) stably expressed in recombinant CHO(ORL1+) cells
Assay: cell-based or functional assay

Binder	inhibition of forskolin-induced accumulation of cAMP in recombinant CHO(ORL1+) cells, IC50 [nM]	inhibition of forskolin-induced accumulation of cAMP in CHO cells expressing the receptor, IC50 [nM]
B1	0.9	
B2		1
